Results on eight sequences are retold here after the supplement of paper PMC10065799, “High-throughput profiling of sequence recognition by tyrosine kinases and SH2 domains using bacterial peptide display” (eLife, 2023).

Data set [1] addresses Fes (UniProt P07332). The data set is described as follows: phosphorylation enrichment, bacterial display (enrichment ratio); higher = better substrate or ligand; peptides without Tyr show the background.
In data set [2] the target is EPHB2 (UniProt P29323). Described as above.
For data set [3], the system named is AncSZ. The data set is described as above.
Data set [4] deals with Fer (mouse). Described as above.
Data set [5] addresses MERTK (UniProt Q12866). The data set is described as above.
Data set [6] relates to c-Src. Described as above.
The target of data set [7] is FGFR1 (UniProt P11362). The data set is described as above.
Chain of FGFR1 (P11362 whole entry, looked up): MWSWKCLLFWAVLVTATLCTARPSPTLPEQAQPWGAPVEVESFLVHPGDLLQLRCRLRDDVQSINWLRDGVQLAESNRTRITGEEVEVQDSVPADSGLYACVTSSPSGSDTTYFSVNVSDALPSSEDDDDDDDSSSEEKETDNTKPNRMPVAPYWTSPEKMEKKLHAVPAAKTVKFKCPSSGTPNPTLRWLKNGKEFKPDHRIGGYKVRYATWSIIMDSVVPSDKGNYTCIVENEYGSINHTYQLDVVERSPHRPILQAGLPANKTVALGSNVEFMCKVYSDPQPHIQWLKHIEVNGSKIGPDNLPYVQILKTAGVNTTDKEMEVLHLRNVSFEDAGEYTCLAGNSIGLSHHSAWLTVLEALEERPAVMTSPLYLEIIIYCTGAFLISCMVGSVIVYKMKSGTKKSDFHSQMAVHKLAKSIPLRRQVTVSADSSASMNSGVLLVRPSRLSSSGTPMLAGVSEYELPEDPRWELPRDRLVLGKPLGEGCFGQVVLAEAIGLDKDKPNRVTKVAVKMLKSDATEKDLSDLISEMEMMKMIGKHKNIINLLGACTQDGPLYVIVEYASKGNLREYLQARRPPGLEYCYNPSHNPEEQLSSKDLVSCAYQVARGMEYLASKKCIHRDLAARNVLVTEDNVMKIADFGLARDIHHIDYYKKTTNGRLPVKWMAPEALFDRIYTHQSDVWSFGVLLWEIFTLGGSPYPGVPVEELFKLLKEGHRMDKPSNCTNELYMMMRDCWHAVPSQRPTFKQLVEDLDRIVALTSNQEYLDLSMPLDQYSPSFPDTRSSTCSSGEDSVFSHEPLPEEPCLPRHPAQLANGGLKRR
In data set [8] the target is Fyn (UniProt P06241). The description is as above.
Chain of Fyn (P06241 whole entry, looked up): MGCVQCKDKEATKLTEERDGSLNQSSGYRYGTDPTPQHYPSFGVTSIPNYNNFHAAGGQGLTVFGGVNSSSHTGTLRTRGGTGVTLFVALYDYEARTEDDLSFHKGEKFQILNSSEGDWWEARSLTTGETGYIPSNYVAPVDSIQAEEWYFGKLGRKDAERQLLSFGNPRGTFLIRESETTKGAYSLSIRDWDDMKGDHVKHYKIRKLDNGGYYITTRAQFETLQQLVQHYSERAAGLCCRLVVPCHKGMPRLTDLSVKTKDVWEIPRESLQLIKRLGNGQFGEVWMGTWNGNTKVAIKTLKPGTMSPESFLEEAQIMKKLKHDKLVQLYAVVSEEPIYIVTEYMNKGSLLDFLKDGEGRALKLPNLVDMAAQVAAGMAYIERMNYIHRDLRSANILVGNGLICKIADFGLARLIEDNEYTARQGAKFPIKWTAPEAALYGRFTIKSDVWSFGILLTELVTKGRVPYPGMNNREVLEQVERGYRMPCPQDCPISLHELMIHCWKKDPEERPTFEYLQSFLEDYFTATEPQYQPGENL
For data set [9], the system named is c-Abl (mouse). The data set is described as above.
Data set [10] addresses FGFR3 (UniProt P22607). Described as above.
The target in data set [11] is Hck (UniProt P08631). The data set is described as above.
Chain of Hck (P08631 whole entry, looked up): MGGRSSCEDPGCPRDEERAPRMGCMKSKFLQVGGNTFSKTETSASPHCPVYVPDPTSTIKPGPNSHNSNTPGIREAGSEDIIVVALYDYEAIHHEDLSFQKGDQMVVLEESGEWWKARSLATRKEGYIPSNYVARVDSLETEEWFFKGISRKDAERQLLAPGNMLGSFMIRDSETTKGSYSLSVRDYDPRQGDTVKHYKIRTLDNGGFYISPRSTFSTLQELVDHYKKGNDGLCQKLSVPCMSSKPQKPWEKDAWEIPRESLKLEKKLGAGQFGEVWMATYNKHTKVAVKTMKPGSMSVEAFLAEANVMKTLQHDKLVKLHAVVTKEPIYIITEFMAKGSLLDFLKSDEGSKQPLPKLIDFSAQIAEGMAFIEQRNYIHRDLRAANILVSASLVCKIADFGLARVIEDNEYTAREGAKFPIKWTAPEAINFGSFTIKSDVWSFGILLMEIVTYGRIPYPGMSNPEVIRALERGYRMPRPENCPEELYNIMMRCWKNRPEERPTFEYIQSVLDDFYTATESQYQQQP
Data set [12] addresses Jak2 (UniProt O60674). The description is as above.
The target in data set [13] is EPHB1 (UniProt P54762). The data set is described as above.
Chain of EPHB1 (P54762 whole entry, looked up): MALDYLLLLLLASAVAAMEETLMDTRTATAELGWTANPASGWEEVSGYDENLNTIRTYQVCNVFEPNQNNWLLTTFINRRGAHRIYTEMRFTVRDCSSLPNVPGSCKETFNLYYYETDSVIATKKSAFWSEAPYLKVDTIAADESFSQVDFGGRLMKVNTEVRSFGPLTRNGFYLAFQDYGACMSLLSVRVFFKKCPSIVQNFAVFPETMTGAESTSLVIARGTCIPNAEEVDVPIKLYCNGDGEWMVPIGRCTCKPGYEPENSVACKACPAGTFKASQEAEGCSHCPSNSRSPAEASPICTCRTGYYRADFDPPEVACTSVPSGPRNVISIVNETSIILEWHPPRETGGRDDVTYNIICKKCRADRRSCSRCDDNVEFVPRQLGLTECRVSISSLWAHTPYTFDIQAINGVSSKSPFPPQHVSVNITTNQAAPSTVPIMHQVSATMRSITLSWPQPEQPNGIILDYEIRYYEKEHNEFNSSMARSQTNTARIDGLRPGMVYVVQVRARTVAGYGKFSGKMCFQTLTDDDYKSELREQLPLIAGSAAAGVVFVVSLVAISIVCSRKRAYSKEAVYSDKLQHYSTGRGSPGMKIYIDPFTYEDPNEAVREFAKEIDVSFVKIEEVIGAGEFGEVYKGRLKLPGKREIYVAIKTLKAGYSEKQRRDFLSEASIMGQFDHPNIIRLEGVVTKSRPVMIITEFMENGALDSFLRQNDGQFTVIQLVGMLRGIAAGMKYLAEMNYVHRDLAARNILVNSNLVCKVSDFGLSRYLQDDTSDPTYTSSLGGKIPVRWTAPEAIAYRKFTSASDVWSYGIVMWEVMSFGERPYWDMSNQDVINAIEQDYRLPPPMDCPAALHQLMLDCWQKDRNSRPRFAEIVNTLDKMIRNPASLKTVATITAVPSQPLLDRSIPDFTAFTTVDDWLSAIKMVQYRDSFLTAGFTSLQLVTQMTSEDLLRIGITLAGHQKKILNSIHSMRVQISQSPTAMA
The target in data set [14] is Grb2 SH2 (UniProt P62993). The data set is described as follows: SH2 binding enrichment of the phosphorylated peptide, bacterial display (enrichment ratio); higher = better substrate or ligand; peptides without Tyr show the background.
Chain of Grb2 SH2 (P62993 whole entry, looked up): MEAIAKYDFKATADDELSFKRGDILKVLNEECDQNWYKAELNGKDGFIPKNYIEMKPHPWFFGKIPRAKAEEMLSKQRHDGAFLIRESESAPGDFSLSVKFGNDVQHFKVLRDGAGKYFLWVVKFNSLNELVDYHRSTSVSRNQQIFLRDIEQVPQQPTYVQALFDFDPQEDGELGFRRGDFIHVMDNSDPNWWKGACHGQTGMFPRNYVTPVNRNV
For data set [15], the target named is c-Src SH2. The description is as above.
For data set [16], the target named is SHP2-C SH2. The description is as above.
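Throughout, for SH2 binding enrichment of the phosphorylated peptide, bacterial display: peptide library displayed on the E. coli surface as eCPX fusions, selected cells deep-sequenced, score is each peptide's frequency after selection divided by its frequency in the input.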
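Throughout, for phosphorylation enrichment, bacterial display: 11-residue human phosphosite peptides and single-mutation variants displayed on the E. coli surface, counted by deep sequencing, each peptide's frequency after selection divided by its frequency in the unselected input library; frequency after pTyr selection over input frequency; kinase dosed for 20-30% of maximal phosphorylation in three min.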

Chain of Jak2 (O60674 whole entry, looked up): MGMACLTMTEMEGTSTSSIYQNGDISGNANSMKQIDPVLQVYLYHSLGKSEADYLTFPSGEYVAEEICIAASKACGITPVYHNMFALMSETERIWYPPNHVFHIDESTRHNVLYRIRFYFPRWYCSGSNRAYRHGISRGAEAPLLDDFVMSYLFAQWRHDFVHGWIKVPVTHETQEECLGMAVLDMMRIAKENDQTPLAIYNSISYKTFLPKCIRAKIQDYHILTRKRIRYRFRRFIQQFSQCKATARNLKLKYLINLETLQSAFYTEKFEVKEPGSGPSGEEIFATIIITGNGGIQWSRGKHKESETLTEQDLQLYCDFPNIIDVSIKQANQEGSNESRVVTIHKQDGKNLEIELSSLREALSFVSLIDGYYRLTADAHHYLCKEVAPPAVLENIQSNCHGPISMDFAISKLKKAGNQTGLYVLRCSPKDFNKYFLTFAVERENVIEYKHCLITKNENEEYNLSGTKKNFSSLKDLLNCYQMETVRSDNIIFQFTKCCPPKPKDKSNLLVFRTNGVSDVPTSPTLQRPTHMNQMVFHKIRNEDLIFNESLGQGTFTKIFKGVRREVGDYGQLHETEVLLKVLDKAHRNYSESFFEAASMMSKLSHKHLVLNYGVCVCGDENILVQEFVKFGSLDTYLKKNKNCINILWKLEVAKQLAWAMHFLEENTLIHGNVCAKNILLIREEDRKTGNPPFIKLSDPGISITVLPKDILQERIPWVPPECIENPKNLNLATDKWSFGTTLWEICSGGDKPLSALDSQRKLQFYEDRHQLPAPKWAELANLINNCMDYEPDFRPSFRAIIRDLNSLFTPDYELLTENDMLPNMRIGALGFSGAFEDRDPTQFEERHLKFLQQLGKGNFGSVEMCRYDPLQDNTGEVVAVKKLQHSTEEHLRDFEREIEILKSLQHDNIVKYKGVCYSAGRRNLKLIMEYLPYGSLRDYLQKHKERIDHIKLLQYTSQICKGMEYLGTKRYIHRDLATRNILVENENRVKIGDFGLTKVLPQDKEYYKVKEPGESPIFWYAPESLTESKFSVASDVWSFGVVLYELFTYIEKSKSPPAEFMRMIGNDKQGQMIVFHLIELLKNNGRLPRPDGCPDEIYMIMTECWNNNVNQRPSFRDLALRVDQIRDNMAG
Chain of Fes (P07332 whole entry, looked up): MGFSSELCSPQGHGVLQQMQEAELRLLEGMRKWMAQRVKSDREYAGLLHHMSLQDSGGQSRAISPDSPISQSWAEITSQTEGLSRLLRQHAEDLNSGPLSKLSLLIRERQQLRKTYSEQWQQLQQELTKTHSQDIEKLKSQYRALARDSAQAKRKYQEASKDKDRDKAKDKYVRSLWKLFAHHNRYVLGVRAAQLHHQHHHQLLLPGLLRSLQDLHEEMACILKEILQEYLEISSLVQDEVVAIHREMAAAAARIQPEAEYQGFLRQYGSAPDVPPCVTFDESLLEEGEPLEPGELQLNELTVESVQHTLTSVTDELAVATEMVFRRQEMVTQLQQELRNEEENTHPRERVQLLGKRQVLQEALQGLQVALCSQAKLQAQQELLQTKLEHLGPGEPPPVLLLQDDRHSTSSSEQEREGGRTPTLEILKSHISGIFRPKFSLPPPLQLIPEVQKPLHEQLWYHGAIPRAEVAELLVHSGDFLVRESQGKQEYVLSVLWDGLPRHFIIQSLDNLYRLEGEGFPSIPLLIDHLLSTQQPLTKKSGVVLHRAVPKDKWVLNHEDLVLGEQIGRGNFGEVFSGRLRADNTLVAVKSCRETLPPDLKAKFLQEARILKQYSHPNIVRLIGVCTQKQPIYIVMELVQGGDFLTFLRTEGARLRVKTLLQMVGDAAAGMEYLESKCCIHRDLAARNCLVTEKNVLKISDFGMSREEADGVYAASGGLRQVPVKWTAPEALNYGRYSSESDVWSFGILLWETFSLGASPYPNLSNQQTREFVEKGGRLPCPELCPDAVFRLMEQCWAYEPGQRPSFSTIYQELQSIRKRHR

As to SVETPYVSVTF [NDRG2_Y47_G48V], the phosphorylation enrichment turned out to be 1.19 in [1]; 0.629 in data set [2]; 1.26 in [3]; 1.56 in [4]; 0.47 in [5]; 2.05 in data set [6]. For the same sequence, the phosphorylation enrichment in [7] turned out to be 0.897; in [8], 0.784; in [9], 0.844; in data set [10], 0.936; in data set [11], 0.662; in data set [12], 1.1. Besides, the phosphorylation enrichment in data set [13] is 0.632. Besides, the results for the SH2 binding enrichment in [14], in data set [15] and in data set [16] were 0.632, 0.485 and 0.827, respectively.
As to SVGGCYEQLFV [MC4R_Y41_D37V], the phosphorylation enrichment in data set [1] came out at 1.42; in data set [2], 0.661; in data set [3], 1.51; in data set [4] it was 7.02; in data set [5], 0.826; in data set [6] it was 1.24. Further, the phosphorylation enrichment in [7] is 0.791; in data set [8], 0.982; in [9], 1.22; in data set [10] it was 0.972; in [11], 1.46; in [12], 1.14. Moreover, the phosphorylation enrichment in data set [13] stood at 1.02. Moreover, the SH2 binding enrichment in data set [14] worked out at 0.862; in data set [15], 0.76; in [16], 0.633.
Turning to SVMVPYEPPEV [TP53_Y220_V217M], the phosphorylation enrichment in [1] amounted to 1.15; in data set [2], 0.54; in data set [3], 1.04; in data set [4] it was 0.56; in data set [5], 0.433; in data set [6], 0.465. In addition, the phosphorylation enrichment in data set [7] was 0.52; in [8], 0.481; in data set [9], 0.804; in data set [10], 0.662; in [11], 0.496; in [12] it was 1.09. Further, the phosphorylation enrichment in data set [13] was found to be 0.515. Also, the SH2 binding enrichment in data set [14] amounted to 0.786; in data set [15], 0.608; in data set [16] it was 0.626.
With SVTCTGSPALN [TP53_Y126_Y126G], the phosphorylation enrichment in data set [1] turned out to be 0.972; in [2] it was 0.487; in data set [3] it was 0.792; in [4] it was 0.423; in [5], 0.385; in [6] it was 0.387. The phosphorylation enrichment in data set [7] was 0.422; in [8], 0.422; in [9], 0.612; in data set [10] it was 0.511; in data set [11] it was 0.459; in [12], 0.741. Besides, the phosphorylation enrichment in data set [13] amounted to 0.539. Besides, the results for the SH2 binding enrichment in data set [14], in [15] and in [16] were 0.796, 0.388 and 0.625, respectively.
SVTCTYCPALN [TP53_Y126_S127C]: the phosphorylation enrichment was 0.779 in [1]; 0.413 in [2]; 0.84 in data set [3]; 0.394 in data set [4]; 0.611 in [5]; 0.581 in data set [6]. For the same sequence, the phosphorylation enrichment in data set [7] came to 0.564; in data set [8], 0.545; in data set [9] it was 0.683; in data set [10], 0.46; in data set [11], 0.495; in data set [12] it was 0.629. The phosphorylation enrichment in [13] stood at 0.38. The SH2 binding enrichment amounted to 1.24 in data set [14], 1.19 in [15] and 1.35 in data set [16].
On to SVVVLYEPPEV [TP53_Y220_P219L], for which the phosphorylation enrichment in data set [1] worked out at 1.15; in data set [2], 11; in [3], 1.72; in data set [4], 5.4; in data set [5], 3.56; in data set [6], 0.701. For the same sequence, the phosphorylation enrichment in [7] was determined as 0.588; in data set [8], 0.59; in [9], 1.19; in [10] it was 0.738; in [11], 1.42; in data set [12] it was 1.06. Besides, in data set [13], the phosphorylation enrichment is 4.88. The SH2 binding enrichment in [14] worked out at 0.962; in [15], 0.611; in [16], 0.612.
As for SVVVPCEPPEV [TP53_Y220_Y220C], the phosphorylation enrichment in [1] worked out at 1.18; in data set [2], 0.671; in [3], 0.998; in [4], 0.525; in [5], 0.459; in [6], 0.481. In addition, the phosphorylation enrichment in data set [7] came out at 0.517; in data set [8], 0.438; in [9] it was 0.834; in [10], 0.678; in data set [11] it was 0.517; in data set [12] it was 1.04. Further, in data set [13], the phosphorylation enrichment was 0.534. Moreover, the SH2 binding enrichment in data set [14] was found to be 1.02; in data set [15], 0.571; in data set [16], 0.886.
As for SVVVPYEPAEV [TP53_Y220_P223A], the phosphorylation enrichment in data set [1] stood at 1.18; in data set [2] it was 0.689; in data set [3] it was 1.09; in data set [4] it was 0.596; in [5] it was 0.488; in [6], 0.539. Further, the phosphorylation enrichment in data set [7] is 0.566; in data set [8], 0.433; in data set [9], 0.708; in data set [10] it was 0.719; in data set [11], 0.498; in data set [12], 1.1. Further, the phosphorylation enrichment in [13] came to 0.704. Besides, the results for the SH2 binding enrichment in data set [14], in data set [15] and in data set [16] were 0.81, 1.11 and 0.787, respectively.
